The source of these data is article PMC11931385, “Structural and functional analysis of cancer-associated missense variants in the retinoblastoma protein pocket domain” (The Journal of Biological Chemistry, 2025).

No end group written: not given here. TMR = tetramethyl rhodamine dye

Common to all, as to assay: fluorescence polarisation; 25 °C; unlabeled Rb^P titrated against 1.5 nM TMR-E2F1^TD or 7.5 nM TMR-E7^LxCxE; 25 mM Tris pH 8.0, 200 mM NaCl, 1 mM DTT, 0.1% Tween-20; 2 min incubation; quadratic fit; apparent Kd for the variants, Kd for WT
Holding throughout (details): both partners purified

One experiment concerns the target T1, Rb^P R611S (human, UniProt P06400 380-788, R611S).
T1 construct: also called variant 38
T1 sequence (looked up): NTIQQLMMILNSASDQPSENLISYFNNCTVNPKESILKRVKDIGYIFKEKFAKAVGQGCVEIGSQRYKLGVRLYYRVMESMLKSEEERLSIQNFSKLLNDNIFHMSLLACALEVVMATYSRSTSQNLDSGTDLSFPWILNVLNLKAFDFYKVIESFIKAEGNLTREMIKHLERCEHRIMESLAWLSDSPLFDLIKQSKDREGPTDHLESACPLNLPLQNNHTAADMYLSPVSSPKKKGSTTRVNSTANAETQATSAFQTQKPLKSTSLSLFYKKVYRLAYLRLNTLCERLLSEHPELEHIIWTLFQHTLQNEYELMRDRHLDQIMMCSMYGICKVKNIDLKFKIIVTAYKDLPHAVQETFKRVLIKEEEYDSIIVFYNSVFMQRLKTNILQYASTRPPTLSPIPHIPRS

Another experiment has as its target T2, Rb^P R741C (human, UniProt P06400 380-788, R741C).
T2 construct: also called variant 68
T2 sequence (looked up): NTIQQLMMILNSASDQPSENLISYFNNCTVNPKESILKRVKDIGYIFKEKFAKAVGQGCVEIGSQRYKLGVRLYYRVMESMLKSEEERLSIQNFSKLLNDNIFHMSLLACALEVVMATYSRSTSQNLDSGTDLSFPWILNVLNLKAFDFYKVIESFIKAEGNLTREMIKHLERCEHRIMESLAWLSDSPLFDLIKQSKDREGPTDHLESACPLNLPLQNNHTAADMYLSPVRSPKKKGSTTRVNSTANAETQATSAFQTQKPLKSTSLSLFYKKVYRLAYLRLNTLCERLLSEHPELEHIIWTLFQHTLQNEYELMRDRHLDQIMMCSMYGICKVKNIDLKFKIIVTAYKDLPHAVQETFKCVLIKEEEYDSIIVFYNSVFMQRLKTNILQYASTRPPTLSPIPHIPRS

For a further experiment, the target named is T3, Rb^P S671F (human, UniProt P06400 380-788, S671F).
T3 construct: also called variant 53
T3 sequence (looked up): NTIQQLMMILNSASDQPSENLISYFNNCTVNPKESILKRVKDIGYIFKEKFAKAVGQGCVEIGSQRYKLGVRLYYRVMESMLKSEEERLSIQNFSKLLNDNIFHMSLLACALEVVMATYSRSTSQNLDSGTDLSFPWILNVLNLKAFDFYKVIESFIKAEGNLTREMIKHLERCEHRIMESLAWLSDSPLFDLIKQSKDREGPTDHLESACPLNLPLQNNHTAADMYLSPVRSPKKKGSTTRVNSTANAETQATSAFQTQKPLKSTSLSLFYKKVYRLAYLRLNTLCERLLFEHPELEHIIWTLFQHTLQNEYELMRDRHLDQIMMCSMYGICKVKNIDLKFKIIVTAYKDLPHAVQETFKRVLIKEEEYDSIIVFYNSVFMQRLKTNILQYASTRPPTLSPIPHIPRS

A further experiment has as its target T4, Rb^P S474N (human, UniProt P06400 380-788, S474N).
T4 construct: also called variant 12
T4 sequence (looked up): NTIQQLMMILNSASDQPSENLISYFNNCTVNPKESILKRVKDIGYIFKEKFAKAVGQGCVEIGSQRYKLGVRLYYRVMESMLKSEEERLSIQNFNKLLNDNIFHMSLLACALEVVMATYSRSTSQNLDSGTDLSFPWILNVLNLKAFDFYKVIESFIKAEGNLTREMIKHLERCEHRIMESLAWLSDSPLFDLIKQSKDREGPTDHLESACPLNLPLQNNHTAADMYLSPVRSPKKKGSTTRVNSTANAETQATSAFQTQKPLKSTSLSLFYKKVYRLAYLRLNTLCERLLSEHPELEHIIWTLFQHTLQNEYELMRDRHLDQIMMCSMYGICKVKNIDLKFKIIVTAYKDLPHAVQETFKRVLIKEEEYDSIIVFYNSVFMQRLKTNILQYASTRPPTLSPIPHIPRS

A further experiment addresses T5, Rb^P R656Q (human, UniProt P06400 380-788, R656Q).
T5 construct: also called variant 48
T5 sequence (looked up): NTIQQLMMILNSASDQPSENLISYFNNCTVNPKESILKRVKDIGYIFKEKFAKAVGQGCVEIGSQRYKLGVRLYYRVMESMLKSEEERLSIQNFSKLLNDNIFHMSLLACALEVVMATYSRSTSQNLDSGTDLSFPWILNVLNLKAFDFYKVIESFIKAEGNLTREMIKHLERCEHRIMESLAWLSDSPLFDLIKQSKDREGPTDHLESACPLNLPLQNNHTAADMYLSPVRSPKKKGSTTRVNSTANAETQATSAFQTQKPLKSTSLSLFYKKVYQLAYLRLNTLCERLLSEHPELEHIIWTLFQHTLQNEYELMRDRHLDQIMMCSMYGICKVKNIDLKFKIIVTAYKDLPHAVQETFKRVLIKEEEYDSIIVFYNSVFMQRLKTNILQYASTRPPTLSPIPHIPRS

B1: TMR-E2F1^TD, peptide of the E2F1 transactivation domain (peptide)
peptide: {TMR}-GEGIRDLFDCDFGDLTPLD
notes: also called E2F^TD; source: synthetic peptide, bought: GenScript
As for B1, the Kd with Rb^P R611S was determined as 15 nM; in the experiment with Rb^P R741C it was 23 nM; with Rb^P S671F it was 24 nM; with Rb^P S474N it was 19 nM; in the experiment with Rb^P R656Q, 183 nM.

B2: TMR-E7^LxCxE, LxCxE peptide of the E7 oncoprotein from HPV (peptide)
peptide: DLYCYEQLN
modifications: also: TMR label, position not given here
notes: source: synthetic peptide, bought: GenScript
Take B2: the Kd was 5 nM with Rb^P R611S; 14 nM with Rb^P R741C; 9 nM in the experiment with Rb^P S671F; 8 nM with Rb^P S474N; 6 nM with Rb^P R656Q.
